Measurements as given in US20040006022A1 (Harvard, published 2004).
Where two headings read alike, the source gives them in different places.

Tests used:
[1] = molecular target: recombinant water-soluble 'empty' HLA-DR4 (DRB1*0401) (human)
[2] = molecular target: recombinant water-soluble 'empty' HLA-DR1 (DRB1*0101) (human); test: competitive binding ELISA on recombinant HLA-DR1; competitor biotinylated YEAK
[3] = molecular target: HLA-DR1 purified from human homozygous EBV-transformed B cell lines (human); test: size-exclusion column of YEAK incubated with an excess of HLA-DR purified from B cell lines
[4] = molecular target: HLA-DR2 purified from human homozygous EBV-transformed B cell lines (human); test: as above
[5] = molecular target: HLA-DR4 purified from human homozygous EBV-transformed B cell lines (human); test: as above
[6] = molecular target: recombinant water-soluble 'empty' HLA-DR1 (DRB1*0101) (human); test: incubation 1:1 with water-soluble HLA-DR, Centricon ultrafiltration, acid extraction, amino acid analysis
[7] = molecular target: recombinant water-soluble 'empty' HLA-DR2 (DRB1*1501) (human); test: as above
[8] = molecular target: recombinant water-soluble 'empty' HLA-DR4 (DRB1*0401) (human); test: as above
[9] = molecular target: HLA-DR4 on L fibroblasts transfected with HLA-DR4 (human); test: cell-based or functional assay
[10] = molecular target: HLA-DR1 on L fibroblasts transfected with HLA-DR1 (L57.23) (human); test: cell-based or functional assay
[11] = molecular target: T1, recombinant water-soluble 'empty' HLA-DR4 (DRB1*0401) (human); test: competitive binding ELISA on recombinant HLA-DR4; competitor biotinylated YEAK
T1 construct: extracellular domain; extracellular domain is inferred from 'water-soluble'

[12] = molecular target: T2, recombinant water-soluble 'empty' HLA-DR1 (DRB1*0101) (human); test: competitive binding ELISA; competitors biotinylated Multipin peptides
T2 construct: extracellular domain

[13] = molecular target: T1, recombinant water-soluble 'empty' …; test: as above

Molecule “heteropolymer YEAK (Copolymer 1), poly(Y,E,A,K)” has an affinity determined by competition [1] of 2.5 µM, an affinity determined by competition [2] of 8 µM and a percent of YEAK at the lower molecular weight position of control (unbound) YEAK [3] of less than 10%. It also gave a percent of YEAK at the lower molecular weight position of control (unbound) YEAK [4] of less than 10%, a percent of YEAK at the lower molecular weight position of control (unbound) YEAK [5] of less than 10% and a percent of added YEAK in the bound fraction [6] greater than 95%. For the same molecule, the percent of added YEAK in the bound fraction [7] was 80% and the percent of added YEAK in the bound fraction [8] was greater than 95%.

In the case of AEKAYAAAAAAAAAA [synthetic 15-mer peptide SEQ ID NO: 33, AEKAYAAAAAAAAAA], the “inhibition of the DR4 3838 T cell clone (IL-2 secretion)” value (“inhibition of the DR4 3838 T cell clone” for short) [9] is reported as greater than 80%.

In the case of EKAYAAAAAAAAAAA [synthetic 15-mer peptide SEQ ID NO: 27, EKAYAAAAAAAAAAA], the “inhibition of the response of 19.3 T cells (IL-2 secretion)” value [10] is reported as roughly 100%, the “inhibition of the DR4 3838 T cell clone” value [9] is reported as greater than 80% and the “inhibition of the DR4 D3 T cell clone (IL-2 secretion)” value (from here on “inhibition of the DR4 D3 T cell clone”) [9] is reported as greater than 80%.

For AAKYEAAAAAAAAAA [synthetic 15-mer peptide SEQ ID NO: 28, AAKYEAAAAAAAAAA], the “inhibition of the DR4 3838 T cell clone” value [9] was greater than 80%.

For AAEYKAAAAAAAAAA [synthetic 15-mer peptide SEQ ID NO: 26, AAEYKAAAAAAAAAA], the “inhibition of the response of 19.3 T cells (IL-2 secretion)” value [10] was roughly 100%.

AKKYAAAAAAKAAAA [synthetic 15-mer peptide SEQ ID NO: 8, AKKYAAAAAAKAAAA] was tested, and the “inhibition of the DR4 D3 T cell clone” value [9] was greater than 80%.

For AKKYAEAAAAAAAAA [synthetic 15-mer peptide SEQ ID NO: 22, AKKYAEAAAAAAAAA], the “inhibition of the DR4 3838 T cell clone” value [9] was greater than 80%.

AAKYAEAAAAKAAAA (also called peptide 15) [synthetic 15-mer peptide SEQ ID NO: 15, AAKYAEAAAAKAAAA] was tested, and the “inhibition of the response of 19.3 T cells (IL-2 secretion)” value [10] was roughly 100%, the “inhibition of the DR4 D3 T cell clone” value [9] was greater than 80% and the “affinity determined by competition” value [11] was less than 1 µM.

For AEKYAAAAAAKAAAA [synthetic 15-mer peptide SEQ ID NO: 6, AEKYAAAAAAKAAAA], the “inhibition of the DR4 3838 T cell clone” value [9] was greater than 80%.

In the case of AEEYAAAAAAKAAAA [synthetic 15-mer peptide SEQ ID NO: 11, AEEYAAAAAAKAAAA], the “inhibition of the DR4 3838 T cell clone” value [9] is reported as greater than 80%.

In the case of EAAYAAAAAAKAAAA [synthetic 15-mer peptide SEQ ID NO: 16, EAAYAAAAAAKAAAA], the “inhibition of the DR4 3838 T cell clone” value [9] is reported as greater than 80% and the “inhibition of the DR4 D3 T cell clone” value [9] is reported as greater than 80%.

EAKYAAAAAAKAAAA [synthetic 15-mer peptide SEQ ID NO: 18, EAKYAAAAAAKAAAA] was tested, and the “inhibition of the DR4 D3 T cell clone” value [9] was greater than 80% and the “affinity determined by competition” value [11] was 3 µM.

In the case of EKKYAAAAAAKAAAA [synthetic 15-mer peptide SEQ ID NO: 17, EKKYAAAAAAKAAAA], the “inhibition of the DR4 3838 T cell clone” value [9] is reported as greater than 80%.

For AEAYKAAAAAAAAAA [synthetic 15-mer peptide SEQ ID NO: 23, AEAYKAAAAAAAAAA], the “inhibition of the DR4 3838 T cell clone” value [9] was greater than 80%.

AGFKGEQGPKGEP [collagen II (CII) peptide 261-273, AGFKGEQGPKGEP]: binds [12]; binds [13].

In the case of AKEYAAAAAAAAAAA [synthetic 15-mer peptide SEQ ID NO: 20, AKEYAAAAAAAAAAA], the “inhibition of the response of 19.3 T cells (IL-2 secretion)” value [10] is reported as roughly 100%.
